T1: His-tagged full-length YTHDF2 (human, UniProt Q9Y5A9 1-579)
T1 sequence (looked up): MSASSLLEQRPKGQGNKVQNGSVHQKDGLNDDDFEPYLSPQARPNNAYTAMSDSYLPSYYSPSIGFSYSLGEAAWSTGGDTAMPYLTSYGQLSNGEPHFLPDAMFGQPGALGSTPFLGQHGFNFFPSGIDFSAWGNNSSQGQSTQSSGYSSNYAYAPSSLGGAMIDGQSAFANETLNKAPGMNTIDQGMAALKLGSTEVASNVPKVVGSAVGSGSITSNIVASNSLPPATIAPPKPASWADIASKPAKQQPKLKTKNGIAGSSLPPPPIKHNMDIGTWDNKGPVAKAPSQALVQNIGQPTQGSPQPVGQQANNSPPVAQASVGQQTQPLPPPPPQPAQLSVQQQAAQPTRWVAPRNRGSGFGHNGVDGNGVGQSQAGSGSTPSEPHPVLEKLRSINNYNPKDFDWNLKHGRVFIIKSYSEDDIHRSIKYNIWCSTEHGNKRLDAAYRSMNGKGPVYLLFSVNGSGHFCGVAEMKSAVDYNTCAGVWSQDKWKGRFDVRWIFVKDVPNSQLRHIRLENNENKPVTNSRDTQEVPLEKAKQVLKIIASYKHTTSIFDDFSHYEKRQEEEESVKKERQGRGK

B1: CNOT1 SH domain-GST fusion protein (aa 1842-2376) (domain or fragment, human, UniProt A5YKK6 1842-2376, looked up)
chain: YDDPPGLREKAEYLLREWVNLYHSAAAGRDSTKAFSAFVGQMHQQGILKTDDLITRFFRLCTEMCVEISYRAQAEQQHNPAANPTMIRAKCYHNLDAFVRLIALLVKHSGEATNTVTKINLLNKVLGIVVGVLLQDHDVRQSEFQQLPYHRIFIMLLLELNAPEHVLETINFQTLTAFCNTFHILRPTKAPGFVYAWLELISHRIFIARMLAHTPQQKGWPMYAQLLIDLFKYLAPFLRNVELTKPMQILYKGTLRVLLVLLHDFPEFLCDYHYGFCDVIPPNCIQLRNLILSAFPRNMRLPDPFTPNLKVDMLSEINIAPRILTNFTGVMPPQFKKDLDSYLKTRSPVTFLSDLRSNLQVSNEPGNRYNLQLINALVLYVGTQAIAHIHNKGSTPSMSTITHSAHMDIFQNLAVDLDTEGRYLFLNAIANQLRYPNSHTHYFSCTMLYLFAEANTEAIQEQITRVLLERLIVNRPHPWGLLITFIELIKNPAFKFWNHEFVHCAPEIEKLFQSVAQCCMGQKQAQQVMEGTGAS

Key:
[1] = target: T1, His-tagged full-length YTHDF2; test: pull-down; GST pull-down: 40 pmol YTHDF2 fragment with 40 pmol GST or GST-CNOT1 (aa 1842-2376) on glutathione Sepharose-4B; 20 mM HEPES pH 7.4, 200 mM NaCl, 0.1% Tween-20; 2 h at 4 °C; SDS-PAGE and Coomassie Blue staining; settings: both partners purified
[2] = target: B1; test: as above; settings: both partners purified

| binding result [1] | binding result [2] | Binder |
| --- | --- | --- |
| binds | – | B1 |
| – | binds | His-tagged YTHDF2-101-200 (domain or fragment, human, UniProt Q9Y5A9 101-200, looked up, Cloned into pET-28a; source: E. coli, purified recombinant) PDAMFGQPGALGSTPFLGQHGFNFFPSGIDFSAWGNNSSQGQSTQSSGYSSNYAYAPSSLGGAMIDGQSAFANETLNKAPGMNTIDQGMAALKLGSTEVA |
| – | binds | His-tagged YTHDF2-N (YTHDF2-1-400) (domain or fragment, human, UniProt Q9Y5A9 1-400, looked up, YTHDF2, human, N-terminal region, aa 1-400; Cloned into pET-28a; The YTHDF2-N of the tethering plasmids is another construct (aa 1-389); source: E. coli, purified recombinant) MSASSLLEQRPKGQGNKVQNGSVHQKDGLNDDDFEPYLSPQARPNNAYTAMSDSYLPSYYSPSIGFSYSLGEAAWSTGGDTAMPYLTSYGQLSNGEPHFLPDAMFGQPGALGSTPFLGQHGFNFFPSGIDFSAWGNNSSQGQSTQSSGYSSNYAYAPSSLGGAMIDGQSAFANETLNKAPGMNTIDQGMAALKLGSTEVASNVPKVVGSAVGSGSITSNIVASNSLPPATIAPPKPASWADIASKPAKQQPKLKTKNGIAGSSLPPPPIKHNMDIGTWDNKGPVAKAPSQALVQNIGQPTQGSPQPVGQQANNSPPVAQASVGQQTQPLPPPPPQPAQLSVQQQAAQPTRWVAPRNRGSGFGHNGVDGNGVGQSQAGSGSTPSEPHPVLEKLRSINNYNP |

Source: PMC5007331, “YTHDF2 destabilizes m^6A-containing RNA through direct recruitment of the CCR4–NOT deadenylase complex” (Nature Communications, 2016)
